This assay addresses T1, human FcεRIα (alpha chain of the high affinity IgE receptor FcεRI) (human, UniProt P12319 26-257).
T1 construct: whole, on cells; also called huFcεRIα; hu FcεRIα
T1 sequence (looked up): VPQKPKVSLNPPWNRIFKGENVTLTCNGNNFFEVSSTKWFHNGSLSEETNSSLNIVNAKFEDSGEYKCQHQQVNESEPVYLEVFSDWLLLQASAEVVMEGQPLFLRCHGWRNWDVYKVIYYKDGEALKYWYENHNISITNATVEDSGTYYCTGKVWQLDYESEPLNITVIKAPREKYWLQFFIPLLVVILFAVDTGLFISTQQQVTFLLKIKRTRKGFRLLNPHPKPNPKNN
The assay can be described thus: not described.

B1: IE7 anti-huFcεRIα mAb (mouse IgG1, hybridoma ATCC PTA-125115) (antibody, V domains shown)
VH: QVQLQESGGDVVKPGGSLKLSCAASGFTFSFYGMSWVRQTPDKKLEWVATISGGGNYTYYPDSVKGRFTISRDNAMNTLYLQMNSLKSEDTAMYYCVRAYYGNWNSYWGQGTLVTVS
VL: DIVMTQTPSSMYASLGERVTITCKASQDINNYLSWFQQKPGRSPKTLIYRANRLMDGVPSRIRGSGSGQDYSLTISSLEYEDMGIYYCLLYNEFPWMFGGGTKLEIKR
notes: Original hybridoma antibody, mouse IgG1; also called mAb IE7
Take B1: the binding result was “binds”.

Source of the values: US20210371519A1 (UNIVERSITY OF CINCINNATI, published 2021).
